Assay results reported in PMC7367873, “Dissecting the sequence determinants for dephosphorylation by the catalytic subunits of phosphatases PP1 and PP2A” (Nature Communications, 2020).

Key:
[1] = system: GFP-14-3-3β and its binding proteins; assay: GFP-14-3-3β co-IP with LC-MS/MS label-free quantification, untreated versus PP1c-treated; parameters: species or system human
GFP-14-3-3β = GFP-14-3-3β co-IP with LC-MS/MS, untreated GFP-14-3-3β versus GFP control (14-3-3 interactome); type: binding, human
[2] = PP1 vs untreated, LFQ intensities, replicates 1-3
[3] = untreated vs GFP, LFQ intensities, replicates 1-3

Row | Difference (log2), PP1 vs untreated [1, 2] | Difference (log2), PP1 vs untreated ([1]; log2 difference, pairwise comparison PP1 vs untreated, label-free quantification, 3 replicates each) | Molecule | Difference (log2), untreated vs GFP (GFP-14-3-3β; [3]) | Difference (log2), untreated vs GFP (GFP-14-3-3β; log2 difference, pairwise comparison untreated vs GFP, label-free quantification, 3 replicates each)
1 | -1.071 log2 |  | SAMD4B (protein, UniProt Q5PRF9 1-694, looked up) Protein Smaug homolog 2: MMFRDQVGILAGWFKGWNECEQTVALLSLLKRVTRTQARFLQLCLEHSLADCNDIHLLESEANSAAIVSQWQQESKEKVVSLLLSHLPLLQPGNTEAKSEYMRLLQKVLAYSIESNAFIEESRQLLSYALIHPATTLEDRNALALWLSHLEERLASGFRSRPEPSYHSRQGSDEWGGPAELGPGEAGPGWQDKPPRENGHVPFHPSSSVPPAINSIGSNANTGLPCQIHPSPLKRSMSLIPTSPQVPGEWPSPEELGARAAFTTPDHAPLSPQSSVASSGSEQTEEQGSSRNTFQEDGSGMKDVPSWLKSLRLHKYAALFSQMSYEEMMTLTEQHLESQNVTKGARHKIALSIQKLRERQSVLKSLEKDVLEGGNLRNALQELQQIIITPIKAYSVLQATVAAATTTPTAKDGAPGEPPLPGAEPPLAHPGTDKGTEAKDPPAVENYPPPPAPAPTDGSEPAPAPVADGDIPSQFTRVMGKVCTQLLVSRPDEENITSYLQLIEKCLTHEAFTETQKKRLLSWKQQVLKLLRTFPRKAALEMQNYRQQKGWAFGSNSLPIAGSVGMGVARRTQRQFPMPPRALPPGRMGLLSPSGIGGVSPRHALTSPSLGGQGRQNLWFANPGGSNSMPSQSRSSVQRTHSLPVHSSPQAILMFPPDCPVPGPDLEINPTLESLCLSMTEHALGDGTDKTSTI | 4.238 log2 | 
2 | -1.185 log2 |  | HNRNPA2B1 (protein, UniProt P22626 1-353, looked up) Heterogeneous nuclear …: MEKTLETVPLERKKREKEQFRKLFIGGLSFETTEESLRNYYEQWGKLTDCVVMRDPASKRSRGFGFVTFSSMAEVDAAMAARPHSIDGRVVEPKRAVAREESGKPGAHVTVKKLFVGGIKEDTEEHHLRDYFEEYGKIDTIEIITDRQSGKKRGFGFVTFDDHDPVDKIVLQKYHTINGHNAEVRKALSRQEMQEVQSSRSGRGGNFGFGDSRGGGGNFGPGPGSNFRGGSDGYGSGRGFGDGYNGYGGGPGGGNFGGSPGYGGGRGGYGGGGPGYGNQGGGYGGGYDNYGGGNYGSGNYNDFGNYNQQPSNYGPMKSGNFGGSRNMGGPYGGGNYGPGGSGGSGGYGGRSRY | 1.703 log2 | 
3 | -1.1218 log2 |  | EWSR1 (protein, UniProt Q01844 1-656, looked up) RNA-binding protein EWS: MASTDYSTYSQAAAQQGYSAYTAQPTQGYAQTTQAYGQQSYGTYGQPTDVSYTQAQTTATYGQTAYATSYGQPPTGYTTPTAPQAYSQPVQGYGTGAYDTTTATVTTTQASYAAQSAYGTQPAYPAYGQQPAATAPTRPQDGNKPTETSQPQSSTGGYNQPSLGYGQSNYSYPQVPGSYPMQPVTAPPSYPPTSYSSTQPTSYDQSSYSQQNTYGQPSSYGQQSSYGQQSSYGQQPPTSYPPQTGSYSQAPSQYSQQSSSYGQQSSFRQDHPSSMGVYGQESGGFSGPGENRSMSGPDNRGRGRGGFDRGGMSRGGRGGGRGGMGSAGERGGFNKPGGPMDEGPDLDLGPPVDPDEDSDNSAIYVQGLNDSVTLDDLADFFKQCGVVKMNKRTGQPMIHIYLDKETGKPKGDATVSYEDPPTAKAAVEWFDGKDFQGSKLKVSLARKKPPMNSMRGGLPPREGRGMPPPLRGGPGGPGGPGGPMGRMGGRGGDRGGFPPRGPRGSRGNPSGGGNVQHRAGDWQCPNPGCGNQNFAWRTECNQCKAPKPEGFLPPPFPPPGGDRGRGGPGGMRGGRGGLMDRGGPGGMFRGGRGGDRGGFRGGRGMDRGGFGGGRRGGPGGPPGPLMEQMGGRRGGRGGPGKMDKGEHRQERRDRPY | 2.021 log2 | 
4 |  | 1.626 | ATP5A1 (protein, UniProt P25705 44-553, looked up) ATP synthase F(1) complex …: QKTGTAEMSSILEERILGADTSVDLEETGRVLSIGDGIARVHGLRNVQAEEMVEFSSGLKGMSLNLEPDNVGVVVFGNDKLIKEGDIVKRTGAIVDVPVGEELLGRVVDALGNAIDGKGPIGSKTRRRVGLKAPGIIPRISVREPMQTGIKAVDSLVPIGRGQRELIIGDRQTGKTSIAIDTIINQKRFNDGSDEKKKLYCIYVAIGQKRSTVAQLVKRLTDADAMKYTIVVSATASDAAPLQYLAPYSGCSMGEYFRDNGKHALIIYDDLSKQAVAYRQMSLLLRRPPGREAYPGDVFYLHSRLLERAAKMNDAFGGGSLTALPVIETQAGDVSAYIPTNVISITDGQIFLETELFYKGIRPAINVGLSVSRVGSAAQTRAMKQVAGTMKLELAQYREVAAFAQFGSDLDAATQQLLSRGVRLTELLKQGQYSPMAIEEQVAVIYAGVRGYLDKLEPSKITKFENAFLSHVVSQHQALLGTIRADGKISEQSDAKLKEIVTNFLAGFEA |  | -0.3409
5 | -1.125 log2 |  | RALGPS2 (protein, UniProt Q86X27 1-583, looked up) Ras-specific guanine …: MDLMNGQASSVNIAATASEKSSSSESLSDKGSELKKSFDAVVFDVLKVTPEEYAGQITLMDVPVFKAIQPDELSSCGWNKKEKYSSAPNAVAFTRRFNHVSFWVVREILHAQTLKIRAEVLSHYIKTAKKLYELNNLHALMAVVSGLQSAPIFRLTKTWALLSRKDKTTFEKLEYVMSKEDNYKRLRDYISSLKMTPCIPYLGIYLSDLTYIDSAYPSTGSILENEQRSNLMNNILRIISDLQQSCEYDIPMLPHVQKYLNSVQYIEELQKFVEDDNYKLSLKIEPGTSTPRSAASREDLVGPEVGASPQSGRKSVAAEGALLPQTPPSPRNLIPHGHRKCHSLGYNFIHKMNTAEFKSATFPNAGPRHLLDDSVMEPHAPSRGQAESSTLSSGISIGSSDGSELSEETSWPAFERNRLYHSLGPVTRVARNGYRSHMKASSSAESEDLAVHLYPGAVTIQGVLRRKTLLKEGKKPTVASWTKYWAALCGTQLFYYAAKSLKATERKHFKSTSNKNVSVIGWMVMMADDPEHPDLFLLTDSEKGNSYKFQAGNRMNAMLWFKHLSAACQSNKQQVPTNLMTFE | 6.032 log2 | 
6 | -1.158 log2 |  | SERPINH1 (protein, UniProt P50454 19-418, looked up) Serpin H1: AEVKKPAAAAAPGTAEKLSPKAATLAERSAGLAFSLYQAMAKDQAVENILVSPVVVASSLGLVSLGGKATTASQAKAVLSAEQLRDEEVHAGLGELLRSLSNSTARNVTWKLGSRLYGPSSVSFADDFVRSSKQHYNCEHSKINFRDKRSALQSINEWAAQTTDGKLPEVTKDVERTDGALLVNAMFFKPHWDEKFHHKMVDNRGFMVTRSYTVGVMMMHRTGLYNYYDDEKEKLQIVEMPLAHKLSSLIILMPHHVEPLERLEKLLTKEQLKIWMGKMQKKAVAISLPKGVVEVTHDLQKHLAGLGLTEAIDKNKADLSRMSGKKDLYLASVFHATAFELDTDGNPFDQDIYGREELRSPKLFYADHPFIFLVRDTQSGSLLFIGRLVRPKGDKMRDEL | -0.8949 log2 | 
7 | -1.031 log2 |  | CORO1B (protein, UniProt Q9BR76 1-489, looked up) Coronin-1B: MSFRKVVRQSKFRHVFGQPVKNDQCYEDIRVSRVTWDSTFCAVNPKFLAVIVEASGGGAFLVLPLSKTGRIDKAYPTVCGHTGPVLDIDWCPHNDEVIASGSEDCTVMVWQIPENGLTSPLTEPVVVLEGHTKRVGIIAWHPTARNVLLSAGCDNVVLIWNVGTAEELYRLDSLHPDLIYNVSWNHNGSLFCSACKDKSVRIIDPRRGTLVAEREKAHEGARPMRAIFLADGKVFTTGFSRMSERQLALWDPENLEEPMALQELDSSNGALLPFYDPDTSVVYVCGKGDSSIRYFEITEEPPYIHFLNTFTSKEPQRGMGSMPKRGLEVSKCEIARFYKLHERKCEPIVMTVPRKSDLFQDDLYPDTAGPEAALEAEEWVSGRDADPILISLREAYVPSKQRDLKISRRNVLSDSRPAMAPGSSHLGAPASTTTAADATPSGSLARAGEAGKLEEVMQELRALRALVKEQGDRICRLEEQLGRMENGDA | 0.1576 log2 | 
8 | -1.121 log2 |  | SF3B1 (protein, UniProt O75533 1-1304, looked up) Splicing factor 3B subunit 1: MAKIAKTHEDIEAQIREIQGKKAALDEAQGVGLDSTGYYDQEIYGGSDSRFAGYVTSIAATELEDDDDDYSSSTSLLGQKKPGYHAPVALLNDIPQSTEQYDPFAEHRPPKIADREDEYKKHRRTMIISPERLDPFADGGKTPDPKMNARTYMDVMREQHLTKEEREIRQQLAEKAKAGELKVVNGAAASQPPSKRKRRWDQTADQTPGATPKKLSSWDQAETPGHTPSLRWDETPGRAKGSETPGATPGSKIWDPTPSHTPAGAATPGRGDTPGHATPGHGGATSSARKNRWDETPKTERDTPGHGSGWAETPRTDRGGDSIGETPTPGASKRKSRWDETPASQMGGSTPVLTPGKTPIGTPAMNMATPTPGHIMSMTPEQLQAWRWEREIDERNRPLSDEELDAMFPEGYKVLPPPAGYVPIRTPARKLTATPTPLGGMTGFHMQTEDRTMKSVNDQPSGNLPFLKPDDIQYFDKLLVDVDESTLSPEEQKERKIMKLLLKIKNGTPPMRKAALRQITDKAREFGAGPLFNQILPLLMSPTLEDQERHLLVKVIDRILYKLDDLVRPYVHKILVVIEPLLIDEDYYARVEGREIISNLAKAAGLATMISTMRPDIDNMDEYVRNTTARAFAVVASALGIPSLLPFLKAVCKSKKSWQARHTGIKIVQQIAILMGCAILPHLRSLVEIIEHGLVDEQQKVRTISALAIAALAEAATPYGIESFDSVLKPLWKGIRQHRGKGLAAFLKAIGYLIPLMDAEYANYYTREVMLILIREFQSPDEEMKKIVLKVVKQCCGTDGVEANYIKTEILPPFFKHFWQHRMALDRRNYRQLVDTTVELANKVGAAEIISRIVDDLKDEAEQYRKMVMETIEKIMGNLGAADIDHKLEEQLIDGILYAFQEQTTEDSVMLNGFGTVVNALGKRVKPYLPQICGTVLWRLNNKSAKVRQQAADLISRTAVVMKTCQEEKLMGHLGVVLYEYLGEEYPEVLGSILGALKAIVNVIGMHKMTPPIKDLLPRLTPILKNRHEKVQENCIDLVGRIADRGAEYVSAREWMRICFELLELLKAHKKAIRRATVNTFGYIAKAIGPHDVLATLLNNLKVQERQNRVCTTVAIAIVAETCSPFTVLPALMNEYRVPELNVQNGVLKSLSFLFEYIGEMGKDYIYAVTPLLEDALMDRDLVHRQTASAVVQHMSLGVYGFGCEDSLNHLLNYVWPNVFETSPHVIQAVMGALEGLRVAIGPCRMLQYCLQGLFHPARKVRDVYWKIYNSIYIGSQDALIAHYPRIYNDDKNTYIRYELDYIL | 2.403 log2 | 
